From the supplement of paper PMC5998384 come the findings set out here.

Series [1] has as its system HeLa Kyoto. The experiment in a line: solubility in G1/S (NP-40 vs SDS abundance) (log2 ratio); higher = more soluble. The settings on record: cell cycle stage: G1/S.
Series [2] concerns HeLa Kyoto. Kind of series: melting temperature (median over replicates), in situ; higher = more thermally stable.
Series [3] deals with HeLa Kyoto. The experiment in a line: solubility change mitosis vs G1/S (difference of NP-40 vs SDS log2 ratios) (log2 ratio difference); higher = more soluble in mitosis.
Series [4] concerns HeLa Kyoto. The experiment in a line: thermal stability score vs G1/S (z-score of summed log2 fold changes over temperatures); higher = more thermally stable than in G1/S.
Where [5] appears, read: cell cycle stage: early G1 (4.5 h after nocodazole release).
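Wherever melting temperature (median over replicates), in situ is given: HeLa Kyoto cells synchronized by double thymidine or nocodazole block, proteins quantified by TMT10plex mass spectrometry, three independent biological replicates.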
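Wherever solubility change mitosis vs G1/S (difference of NP-40 vs SDS log2 ratios) is given: synchronized HeLa Kyoto cells (double thymidine block for G1/S, nocodazole release for mitosis), protein amounts in NP-40 versus SDS lysates quantified by mass spectrometry, three biological replicates.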
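Wherever solubility in G1/S (NP-40 vs SDS abundance) is given: HeLa Kyoto cells arrested at G1/S by double thymidine block, proteins quantified by TMT10plex mass spectrometry in mild NP-40 versus SDS extracts, three biological replicates.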
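Wherever thermal stability score vs G1/S (z-score of summed log2 fold changes over temperatures) is given: synchronized HeLa Kyoto cells, proteins quantified by TMT10plex mass spectrometry, three biological replicates, mitosis taken 0.5 h after nocodazole release, G1/S directly after double thymidine block.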

Take “MSSCSRVALVTGANRGIGLAIARELCRQFSGDVVLTARDVARGQAAVQQLQAEGLSPRFHQLDIDDLQSIRALRDFLRKEYGGLNVLVNNAAVAFKSDDPMPFDIKAEMTLKTNFFATRNMCNELLPIMKPHGRVVNISSLQCLRAFENCSEDLQERFHSETLTEGDLVDLMKKFVEDTKNEVHEREGWPNSPYGVSKLGVTVLSRILARRLDEKRKADRILVNACCPGPVKTDMDGKDSIRTVEEGAETPVYLALLPPDATEPQGQLVHDKVVQNW [CBR3]”: the “solubility in G1/S (log2)” value in series [1] was 0.562. Also, the results for the melting temperature in series [2] (cell cycle stage: G1/S) and in series [2] (cell cycle stage: mitosis) were 51.4 °C and 52.4 °C, respectively. Further, the “solubility change mitosis (log2)” value in series [3] is -0.0459. Further, the thermal stability score in series [4] (setting [5]) was -0.991; in series [4] (cell cycle stage: mitosis), 0.085.
For “MSSDFEGYEQDFAVLTAEITSKIARVPRLPPDEKKQMVANVEKQLEEAKELLEQMDLEVREIPPQSRGMYSNRMRSYKQEMGKLETDFKRSRIAYSDEVRNELLGDDGNSSENQRAHLLDNTERLERSSRRLEAGYQIAVETEQIGQEMLENLSHDREKIQRARERLRETDANLGKSSRILTGMLRRIIQNRILLVILGIIVVITILMAITFSVRRH [VTI1A]”, in series [1], the “solubility in G1/S (log2)” value came to 0.0215. Moreover, the melting temperature in series [2] (cell cycle stage: G1/S) was 55.6 °C; in series [2] (cell cycle stage: mitosis), 55.8 °C. Also, the “solubility change mitosis (log2)” value in series [3] is -0.165. Further, the thermal stability score in series [4] (setting [5]) is -4.18; in series [4] (cell cycle stage: mitosis), -3.25.
Consider “MSSESSKKRKPKVIRSDGAPAEGKRNRSDTEQEGKYYSEEAEVDLRDPGRDYELYKYTCQELQRLMAEIQDLKSRGGKDVAIEIEERRIQSCVHFMTLKKLNRLAHIRLKKGRDQTHEAKQKVDAYHLQLQNLLYEVMHLQKEITKCLEFKSKHEEIDLVSLEEFYKEAPPDISKAEVTMGDPHQQTLARLDWELEQRKRLAEKYRECLSNKEKILKEIEVKKEYLSSLQPRLNSIMQASLPVQEYLFMPFDQAHKQYETARHLPPPLYVLFVQATAYGQACDKTLSVAIEGSVDEAKALFKPPEDSQDDESDSDAEEEQTTKRRRPTLGVQLDDKRKEMLKRHPLSVMLDLKCKDDSVLHLTFYYLMNLNIMTVKAKVTTAMELITPISAGDLLSPDSVLSCLYPGDHGKKTPNPANQYQFDKVGILTLSDYVLELGHPYLWVQKLGGLHFPKEQPQQTVIADHSLSASHMETTMKLLKTRVQSRLALHKQFASLEHGIVPVTSDCQYLFPAKVVSRLVKWVTVAHEDYMELHFTKDIVDAGLAGDTNLYYMALIERGTAKLQAAVVLNPGYSSIPPVFQLCLNWKGEKTNSNDDNIRAMEGEVNVCYKELCGPWPSHQLLTNQLQRLCVLLDVYLETESHDDSVEGPKEFPQEKMCLRLFRGPSRMKPFKYNHPQGFFSHR [THOC5]”, for which the “solubility in G1/S (log2)” value in series [1] is -0.323. For the same sequence, the melting temperature was determined as 51.4 °C in series [2] (cell cycle stage: G1/S) and 50.4 °C in series [2] (cell cycle stage: mitosis). For the same sequence, the “solubility change mitosis (log2)” value in series [3] was 0.281. The thermal stability score in series [4] (setting [5]) amounted to 0.533; in series [4] (cell cycle stage: mitosis), 0.546.
Turning to “MSSFGAGKTKEVIFSVEDGSVKMFLRGRPVPMMIPDELAPTYSLDTRSELPSCRLKLEWVYGYRGRDCRANLYLLPTGEIVYFVASVAVLYSVEEQRQRHYLGHNDDIKCLAIHPDMVTIATGQVAGTTKEGKPLPPHVRIWDSVSLSTLHVLGLGVFDRAVCCVGFSKSNGGNLLCAVDESNDHMLSVWDWAKETKVVDVKCSNEAVLVATFHPTDPTVLITCGKSHIYFWTLEGGSLSKRQGLFEKHEKPKYVLCVTFLEGGDVVTGDSGGNLYVWGKGGNRITQAVLGAHDGGVFGLCALRDGTLVSGGGRDRRVVLWGSDYSKLQEVEVPEDFGPVRTVAEGHGDTLYVGTTRNSILQGSVHTGFSLLVQGHVEELWGLATHPSRAQFVTCGQDKLVHLWSSDSHQPLWSRIIEDPARSAGFHPSGSVLAVGTVTGRWLLLDTETHDLVAIHTDGNEQISVVSFSPDGAYLAVGSHDNLVYVYTVDQGGRKVSRLGKCSGHSSFITHLDWAQDSSCFVTNSGDYEILYWDPATCKQITSADAVRNMEWATATCVLGFGVFGIWSEGADGTDINAVARSHDGKLLASADDFGKVHLFSYPCCQPRALSHKYGGHSSHVTNVAFLWDDSMALTTGGKDTSVLQWRVV [EML2]”, in series [1], the “solubility in G1/S (log2)” value was -0.16. Further, the melting temperature in series [2] (cell cycle stage: G1/S) turned out to be 53.1 °C; in series [2] (cell cycle stage: mitosis), 53.4 °C. In addition, the “solubility change mitosis (log2)” value in series [3] is -0.207. Further, the results for the thermal stability score in series [4] (setting [5]) and in series [4] (cell cycle stage: mitosis) were -0.964 and -1.37, respectively.
In the case of “MSSGAASGTGRGRPRGGGPGPGDPPPSETHKLVVVGGGGVGKSALTIQFIQSYFVSDYDPTIEDSYTKICSVDGIPARLDILDTAGQEEFGAMREQYMRAGHGFLLVFAINDRQSFNEVGKLFTQILRVKDRDDFPVVLVGNKADLESQRQVPRSEASAFGASHHVAYFEASAKLRLNVDEAFEQLVRAVRKYQEQELPPSPPSAPRKKGGGCPCVLL [RRAS]”, in series [1], the “solubility in G1/S (log2)” value was determined as 0.28. Moreover, the melting temperature stood at 56.1 °C in series [2] (cell cycle stage: G1/S) and 56 °C in series [2] (cell cycle stage: mitosis). Moreover, in series [3], the “solubility change mitosis (log2)” value is -0.0644. Besides, the thermal stability score in series [4] (setting [5]) was 0.904; in series [4] (cell cycle stage: mitosis), -0.296.
